Positions count from the first letter of the chain named. Names may count otherwise. Where two headings read alike, the source gives them in different places.
T1: full length ectodomain of human RGMC (eRGMC) (human, UniProt Q6ZVN8 36-400)
T1 sequence: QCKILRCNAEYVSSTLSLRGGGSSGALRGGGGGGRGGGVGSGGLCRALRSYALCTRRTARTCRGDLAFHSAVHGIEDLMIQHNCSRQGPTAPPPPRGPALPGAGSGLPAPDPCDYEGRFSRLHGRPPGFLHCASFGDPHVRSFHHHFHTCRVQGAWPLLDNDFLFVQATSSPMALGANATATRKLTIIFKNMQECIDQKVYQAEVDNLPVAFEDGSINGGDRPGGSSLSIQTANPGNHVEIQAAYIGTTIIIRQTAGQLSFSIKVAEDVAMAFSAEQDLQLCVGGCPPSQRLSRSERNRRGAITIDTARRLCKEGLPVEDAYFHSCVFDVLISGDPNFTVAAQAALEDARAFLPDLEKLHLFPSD

B1: N-terminal domain of human RGMB (RGMBND) (domain or fragment)
chain: QCRIQKCTTDFVSLTSHLNSAVDGFDSEFCKALRAYAGCTQRTSKACRGNLVYHSAVLGISDLMSQRNCSKDGPTSSTNPEVTH
B2: secreted ectodomain of human BMPR1A (eBMPR1A) (receptor)
chain: TLAPEDTLPFLKCYCSGHCPDDAINNTCITNGHCFAIIEEDDQGETTLASGCMKYEGSDFQCKDSPKAQLRRTIECCRTNLCNQYLQPTLPPV
B3: human BMP2 (Bone Morphogenetic Protein 2), disulfide-linked dimer (ligand)
chain: QAKHKQRKRLKSSCKRHPLYVDFSDVGWNDWIVAPPGYHAFYCHGECPFPLADHLNSTNHAIVQTLVNSVNSKIPKACCVPTELSAISMLYLDENEKVVLKNYQDMVVEGCGCR
B4: N-terminal domain of human RGMC (RGMCND) (domain or fragment)
chain: QCKILRCNAEYVSSTLSLRGGGSSGALRGGGGGGRGGGVGSGGLCRALRSYALCTRRTARTCRGDLAFHSAVHGIEDLMIQHNCSRQGPTAPPPPRGPALPGAGSGLPAPDP
B5: RGMCND-G99R (domain or fragment)
chain: B4 chain with G64R
B6: RGMCND-L101P (domain or fragment)
chain: B4 chain with L66P
B7: N-terminal domain of human RGMA (RGMAND) (domain or fragment)
chain: TSPCKILKCNSEFWSATSGSHAPASDDTPEFCAALRSYALCTRRTARTCRGDLAYHSAVHGIEDLMSQHNCSKDGPTSQPRLRTLPPAGDSQERS
B8: full length ectodomain of human RGMB (eRGMB) (domain or fragment)
chain: QCRIQKCTTDFVSLTSHLNSAVDGFDSEFCKALRAYAGCTQRTSKACRGNLVYHSAVLGISDLMSQRNCSKDGPTSSTNPEVTHDPCNYHSHAGAREHRRGDQNPPSYLFCGLFGDPHLRTFKDNFQTCKVEGAWPLIDNNYLSVQVTNVPVVPGSSATATNKITIIFKAHHECTDQKVYQAVTDDLPAAFVDGTTSGGDSDAKSLRIVERESGHYVEMHARYIGTTVFVRQVGRYLTLAIRMPEDLAMSYEESQDLQLCVNGCPLSERIDDGQGQVSAILGHSLPRTSLVQAWPGYTLETANTQCHEKMPVKDIYFQSCVFDLLTTGDANFTAAAHSALEDVEALHPRKERWHIFPSSG
B9: mouse NEO1 fifth and sixth fibronectin type III domains (NEO1FN56) (domain or fragment)
chain: TPMMPPVGVQASILSHDTIRITWADNSLPKHQKITDSRYYTVRWKTNIPANTKYKNANATTLSYLVTGLKPNTLYEFSVMVTKGRRSSTWSMTAHGATFELVPTSPPKDVTVVSKEGKPRTIIVNWQPPSEANGKITGYIIYYSTDVNAEIHDWVIEPVVGNRLTHQIQELTLDTPYYFKIQARNSKGMGPMSEAVQFRTP
B10: mouse NEO1 FN5-FN6 with juxtamembrane stretch (NEO1FN56M) (domain or fragment)
chain: TPMMPPVGVQASILSHDTIRITWADNSLPKHQKITDSRYYTVRWKTNIPANTKYKNANATTLSYLVTGLKPNTLYEFSVMVTKGRRSSTWSMTAHGATFELVPTSPPKDVTVVSKEGKPRTIIVNWQPPSEANGKITGYIIYYSTDVNAEIHDWVIEPVVGNRLTHQIQELTLDTPYYFKIQARNSKGMGPMSEAVQFRTPKADSSDKMPNDQALGSAGKGSRLPDLGSDYKPPMSGSNSPHGSPTSPLDSN

Assays:
[1] = target: human BMP2 (Bone Morphogenetic Protein 2), disulfide-linked dimer (human) (UniProt P12643); test: SPR
[2] = target: B3; test: SEC-MALS
[3] = target: B3; test: SPR
[4] = target: B3; test: SPR; remark: listed apart in the source
[5] = target: B8; test: SPR
[6] = target: T1, full length ectodomain of human RGMC …; test: SPR
crystal structure = target: the molecule itself; test: crystal structure
[7] = target: B3; test: crystal structure
[8] = target: B3; test: crystal structure; remark: listed apart in the source
[9] = target: B3; test: SAXS
[10] = target: B8; test: crystal structure
[11] = target: B8; test: SAXS

RGMC H104A mutant (from UniProt Q6ZVN8 36-147) (domain or fragment)
Kd [1]: 280 nM

B1
stoichiometry N [2]: 2 RGMBND per disulfide-linked BMP2 dimer (printed 2:2) | Kd [3]: 88 nM

B2
Kd [4]: 280 nM | stoichiometry N [2]: 2 eBMPR1A per disulfide-linked BMP2 dimer (printed 2:2)

B3
binding result [5]: binds | binding result [6]: binds | stoichiometry N (crystal structure): 2

B4
Kd [3]: 124 nM | stoichiometry N [7]: 2 RGMC per BMP2 dimer

B5
Kd [3]: 910 nM

B6
Kd [3]: 1500 nM

B7
binding result [7]: binds

B8
stoichiometry N [8]: 2 RGMB per BMP2 dimer | stoichiometry N [9]: 2 eRGMB per BMP2 dimer (printed 2:2:2)

B9
binding result [10]: binds

B10
stoichiometry N [11]: 1 NEO1 per eRGMB (printed 2:2:2)

— paper PMC4456160 (Nature structural & molecular biology, 2015)
